Results on 4 substances are retold here after publication PMC12063641.

Assay [1] concerns the target HIV-1 NL4-3 Gag polyprotein precursor Pr55Gag with MA-L20K/E73K/A82T, uncleaved in immature VLPs (PR-D25N) (HIV-1 (NL4-3)). Put plainly: cryo-EM structure.
The target of assay [2] is HIV-1 NL4-3 matrix protein p17 (MA) L20K, in mature virions or VLPs (HIV-1 (NL4-3)). Put plainly: SDS-resistant oligomer bands on SDS-PAGE and Western blot. On the technique in general: Immunoblotting shows a protein as a band on a membrane.
Assay [3] addresses HIV-1 NL4-3 matrix protein p17 (MA) L20K/E73K/A82T, in mature virions or VLPs (HIV-1 (NL4-3)). The assay is described as above.
Assay [4] addresses purified recombinant MA L20K/E73K/A82T mutant protein (HIV-1). Kind of assay: SDS-PAGE of purified protein (SDS-resistant oligomer bands).

Values joined by “and” are separate entries in the source; they are usually repeats but may differ in a detail not shown here. Equal values may be shown once.

What is called stoichiometry N is a count of units in the complex or per binding partner. With “HIV-1 NL4-3 Gag polyprotein precursor Pr55Gag with MA-L20K/E73K/A82T, uncleaved in immature VLPs (PR-D25N) (natural protein)”, the stoichiometry N in assay [1] is 3 and 6. In the case of “HIV-1 NL4-3 matrix protein p17 (MA) L20K, in mature virions or VLPs (natural protein)”, the stoichiometry N in assay [2] is 2 and 3. With “HIV-1 NL4-3 matrix protein p17 (MA) L20K/E73K/A82T, in mature virions or VLPs (natural protein)”, the stoichiometry N in assay [3] was 2 and 3. On to “purified recombinant MA L20K/E73K/A82T mutant protein (domain or fragment)”, for which the stoichiometry N in assay [4] was 2 and 3.
